Patent US20250011447A1 (EXCYTE BIOPHARMA, published 2025)
Numbering of substitutions follows the chain as printed. Blank lines part the entries; values can stand above or below the binder they belong to.

What was measured:
[1] = target: T1, human BCMA on the cell membrane surface (H929 and RPMI8226 cells) (human, UniProt Q02223 1-184); assay: flow cytometry on H929 cells, scFv-Fc
T1 construct: whole, on cells; also called BCMA antigen on the cell membrane surface; BCMA-expressing cell line H929
T1 sequence (looked up): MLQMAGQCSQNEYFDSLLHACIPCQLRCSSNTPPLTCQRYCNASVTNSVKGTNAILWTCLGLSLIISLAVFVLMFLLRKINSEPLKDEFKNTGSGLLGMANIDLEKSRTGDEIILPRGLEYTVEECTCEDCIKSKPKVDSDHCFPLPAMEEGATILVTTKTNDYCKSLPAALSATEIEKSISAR

[2] = target: T1, human BCMA on the cell membrane surface …; assay: flow cytometry on RPMI8226 cells, scFv-Fc
[3] = target: T1, human BCMA on the cell membrane surface …; assay: flow cytometry on RPMI8226 cells, EC50 ratio (as the table labels it)
[4] = target: T1, human BCMA on the cell membrane surface …; assay: flow cytometry on RPMI8226 cells (as the table labels it; the text gives this value to J6)
[5] = target: T1, human BCMA on the cell membrane surface …; assay: flow cytometry on RPMI8226 cells (as the text tells it; the table gives this value to J6); flow cytometry on RPMI8226 cells; value as the text of paragraph 107 assigns it
[6] = target: T2, BCMA-Fc fusion protein (Acrobiosystems, catalog number BC7-H5254) (human, UniProt Q02223 1-54, biotin cross-linked, 3 to 5 biotin molecules per molecule, where the biotinylated antigen is used (ELISA of Table 3); sites not stated); assay: ELISA EC50 relative to J6
T2 construct: Bought protein; also called BCMA antigen; BCMA-Fc antigen; not shown: human Fc of the bought fusion protein
T2 sequence (looked up): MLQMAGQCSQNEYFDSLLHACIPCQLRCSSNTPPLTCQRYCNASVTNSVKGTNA
Procedure: (§1) After antibodies with different concentrations were coated on enzyme-linked plates, the biotinylated BCMA antigen, streptavidin-conjugated horseradish peroxidase (HRP) and chromogenic substrate were added step by step. The obtained signal-antibody gradient curve is shown in Graph A of FIG. 4, and the relative affinity change fold is shown in Table 3.

[7] = target: T1, human BCMA on the cell membrane surface …; assay: flow cytometry on RPMI8226 cells
Source text: (§2) In order to understand the apparent affinity of these antibodies to BCMA on the cell surface, the binding of B10 parental antibody and the finally obtained 4 mutants to BCMA-expressing cell line RPMI8226 were compared with J6 by flow cytometry (see Graph B of FIG. 4, Table 4).

[8] = target: T1, human BCMA on the cell membrane surface …; assay: flow cytometry on RPMI8226 cells, EC50 ratio
Source text: as §2

[9] = target: T2, BCMA-Fc fusion protein (Acrobiosystems, …); assay: affinity worked out from the ELISA EC50 fold against J6 (taken as about 0.2 nM)
Procedure: as §1

[10] = target: T2, BCMA-Fc fusion protein (Acrobiosystems, …); assay: ELISA, BCMA-Fc coated at 0.25 µg/ml, Fab from E. coli, HRP anti-human Fab
Procedure: The conditions of the enzyme-linked reaction were optimized through preliminary experiments, to allow the A450 absorption value of the binding of B10 parental antibody Fab to the antigen BCMA-Fc 3 times higher than the background signal. The BCMA-Fc antigen was coated at 0.25 μg/ml on the enzyme-linked plate one day in advance, and the secreted and expressed mutant Fab was added to the wells on the following day, with HRP-conjugated anti-human Fab as the second antibody, the substrate was colored, and A450 was read, to obtain clones corresponding to the wells with signals 1.5 times higher than the maximum value of the parental wells, and these clones were called hits. All hits of the light and heavy chain variable regions were collected, inducted to express and tested by ELISA to verify their affinity higher than the parental antibody. Sequence analysis of mutant regions of the plasmid of the re-positive clone was performed, to obtain the mutation information of CDR amino acids. The process was called primary screening. All mutation information in the CDR region that was beneficial to the improvement of affinity was obtained: mutation sites that improved affinity in the heavy chain variable region CDR are shown in Table 1, and those in the light chain variable region CDR are shown in Table 2.

- percentage of binding [1]: 75.3%
- percentage of binding [2]: 5.54%
- Fold increase relative to J6 [3]: 0.57 fold
- EC50 [4]: 1.57 µg/mL
- EC50 [5]: 2.74 µg/mL
B1: B10 scFv-Fc protein (B10 parental antibody) (Fc fusion)
scFv: QVQLQQSGAEVKKPGSSVKVSCKASGGTFSSYAISWVRQAPGQGLEWMGGIIPIFGTANYAQKFQGRVTITADESTSTAYMELSSLRSEDTAVYYCARGWYFDLWGRGTLVTVSSASTGGSSRSSSSGGGGSGGGGLPVLTQPPSASGTPGQRVTISCSGSSSNIGGYSVNWYQQFPGTAPKLLIYRNNQRPSGVPDRFSGSKSGASASLAISGLQSEDEADYYCAAWDDSLIGYVFGTGTQLTVL
notes: scFv gene fused with the Fc gene of human IgG4 (plasmid pFH-B10); also called clone B10; scFv-Fc protein of B10; not shown: Fc of human IgG4 from vector pFH

- Fold of J6 [6]: 1.35 fold
- EC50 [7]: 0.0406 µg/mL
- percentage of binding [1]: 97.2%
- percentage of binding [2]: 58.2%
- Fold increase relative to J6 [8]: 67.5 fold
- Kd [9]: 0.27 nM
B2: B10.5 scFv-Fc (Fc fusion)
scFv: B1 scFv with S31K, Y32S, S35H, I51V, F102L, E220V
notes: also called mutant B10.5; not shown: Fc (scFv-Fc)

- Fold of J6 [6]: 1.43 fold
- EC50 [7]: 0.0451 µg/mL
- percentage of binding [1]: 91.6%
- percentage of binding [2]: 42.9%
- Fold increase relative to J6 [8]: 60.7 fold
- Kd [9]: 0.29 nM
B3: B10.9 scFv-Fc (Fc fusion)
scFv: B1 scFv with S31K, Y32S, S35Q, I51V, F102L, S163N, L232E, Y235W, V236L
notes: also called mutant B10.9; not shown: Fc (scFv-Fc)

- Fold of J6 [6]: 1.55 fold
- EC50 [7]: 0.0343 µg/mL
- percentage of binding [1]: 97.9%
- percentage of binding [2]: 57.5%
- Fold increase relative to J6 [8]: 79.9 fold
- Kd [9]: 0.31 nM
B4: B10.4 scFv-Fc (Fc fusion)
scFv: QVQLQQSGAEVKKPGSSVKVSCKASGGTFSKSAIMWVRQAPGQGLEWMGGVIPIFGTANYAQKFQGRVTITADESTSTAYMELSSLRSEDTAVYYCARGWYLDLWGRGTLVTVSSASTGGSSRSSSSGGGGSGGGGLPVLTQPPSASGTPGQRVTISCSGSSNNIGGYSVNWYQQFPGTAPKLLIYRNNQRPSGVPDRFSGSKSGASFSLAISGLQFEDEADYYCARWDDSVIGWVLGTGTQLTVL
notes: also called mutant B10.4; not shown: Fc (scFv-Fc)

- Fold of J6 [6]: 1.29 fold
- EC50 [7]: 0.0282 µg/mL
- percentage of binding [1]: 98%
- percentage of binding [2]: 54.9%
- Fold increase relative to J6 [8]: 97.1 fold
- Kd [9]: 0.26 nM
B5: B10.3 scFv-Fc (Fc fusion)
scFv: B4 scFv with M35Q, F208A, F217S, R227A, V236L, L237F
notes: also called mutant B10.3; not shown: Fc (scFv-Fc)

- binding result [10]: binds
B6: B10 parental antibody Fab (Fab, V domains shown)
VH: QVQLQQSGAEVKKPGSSVKVSCKASGGTFSSYAISWVRQAPGQGLEWMGGIIPIFGTANYAQKFQGRVTITADESTSTAYMELSSLRSEDTAVYYCARGWYFDLWGRGTLVTVSS
VL: LPVLTQPPSASGTPGQRVTISCSGSSSNIGGYSVNWYQQFPGTAPKLLIYRNNQRPSGVPDRFSGSKSGASASLAISGLQSEDEADYYCAAWDDSLIGYVFGTGTQLTVL
notes: Variable regions cloned into vector pUFL and secreted as Fab by E. coli BL21(DE3); also called Fab form of B10
